These are literature values, as cited in patent publication US10966977B2, “Combination of anti-CD20 antibody, P13 kinase-delta selective inhibitor, and BTK inhibitor to treat b-cell proliferative disorders” (TG Therapeutics, Inc., priority 2016, dated 2021).

Entries after “also recorded” stand apart in the source; their conditions may differ. Counter-ions that a name gives are not always drawn.

Data set [1] concerns relapsed and refractory hematologic malignancies. As to conditions: single agent.
The target of a further data set is T1, CD20 (Homo sapiens, UniProt P11836).
T1 sequence (P11836 1-297): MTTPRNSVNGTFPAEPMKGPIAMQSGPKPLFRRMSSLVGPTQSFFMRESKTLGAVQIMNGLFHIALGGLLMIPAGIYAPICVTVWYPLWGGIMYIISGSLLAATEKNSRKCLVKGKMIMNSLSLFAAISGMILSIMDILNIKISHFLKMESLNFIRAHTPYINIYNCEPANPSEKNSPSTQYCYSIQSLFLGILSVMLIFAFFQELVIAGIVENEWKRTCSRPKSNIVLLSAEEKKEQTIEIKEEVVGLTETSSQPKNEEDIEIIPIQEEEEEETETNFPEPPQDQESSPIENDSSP

A further data set has as its target T2, CD20 antigen (Homo sapiens, UniProt P11836).
T2 sequence (P11836 1-297): T1 sequence (P11836 1-297)

The conditions of data set [2]: single agent.

As for `CC(C)Oc1ccc(-c2nn([C@@H](C)c3oc4ccc(F)cc4c(=O)c3-c3cccc(F)c3)c3ncnc(N)c23)cc1F` [TGR-1202, (S)-2-(1-(4-amino-3-(3-fluoro-4-isopropoxyphenyl)-1H-pyrazolo[3,4-d]pyrimidin-1-yl)ethyl)-6-fluoro-3-(3-fluorophenyl)-4H-chromen-4-one p-toluenesulfonic acid (PTSA) salt], the hepatic toxicity entry in data set [1] is “no reported hepatic toxicity”. Further, in data set [1] (patients with relapsed or refractory hematologic malignancies), the tolerability entry is recorded as “well-tolerated”.
As to “ofatumumab: anti-CD20 IgG1κ human monoclonal antibody”, the “dissociation rate from CD20 compared to rituximab” value in the data set with CD20 is reported as “slower rate”.

B1: Ublituximab: chimeric monoclonal antibody targeting a unique epitope on the CD20 antigen, glycoengineered for enhanced affinity for Fcγ RIIIa receptors (antibody, V domains shown)
VH: QAYLQQSGAELVRPGASVKMSCKASGYTFTSYNMHWVKQTPRQGLEWIGGIYPGNGDTSYNQKFKGKATLTVGKSSSTAYMQLSSLTSEDSAVYFCARYDYNYAMDYWGQGTSVTVSS
VL: QIVLSQSPAILSASPGEKVTMTCRASSSVSYMHWYQQKPGSSPKPWIYATSNLASGVPARFSGSGSGTSYSFTISRVEAEDAATYYCQQWTFNPPTFGGGTRLEIK
modifications: Ublituximab Variable heavy chain; Ublituximab Variable light chain
With B1, in the data set with CD20 antigen, the “ADCC activity compared with rituximab and ofatumab” value is “greater antibody-dependent cellular cytotoxicity”. For the same molecule, in data set [2], the “responses in rituximab refractory patients” value is “Responses with single agent ublituximab were observed in rituximab refractory patients; also recorded: Responses with single agent ublituximab have been observed in rituximab refractory patients”.
